The record followed here is paper PMC3778974 (Cell, 2013).

Where two headings read alike, the source gives them in different places.

Experiment [1] has as its target T1, Def1_(1-500), recombinant (Def1_(1-500)-His) (S. cerevisiae, UniProt P35732 1-500).
T1 sequence (looked up): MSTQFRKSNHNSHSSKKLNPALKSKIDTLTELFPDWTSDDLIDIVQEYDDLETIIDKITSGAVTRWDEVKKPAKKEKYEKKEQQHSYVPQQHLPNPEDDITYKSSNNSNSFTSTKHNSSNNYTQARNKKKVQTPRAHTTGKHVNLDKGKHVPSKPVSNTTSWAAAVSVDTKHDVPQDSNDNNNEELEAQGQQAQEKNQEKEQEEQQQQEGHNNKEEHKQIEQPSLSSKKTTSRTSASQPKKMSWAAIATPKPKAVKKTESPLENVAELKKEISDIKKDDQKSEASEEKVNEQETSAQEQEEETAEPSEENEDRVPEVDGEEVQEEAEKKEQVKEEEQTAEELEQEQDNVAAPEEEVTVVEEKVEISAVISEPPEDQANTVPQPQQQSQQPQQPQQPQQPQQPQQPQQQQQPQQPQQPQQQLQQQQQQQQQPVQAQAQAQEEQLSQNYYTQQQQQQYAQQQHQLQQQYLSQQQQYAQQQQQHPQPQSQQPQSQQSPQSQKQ
Kind of experiment: pull-down.

Experiment [2] addresses T1, Def1_(1-500), recombinant …. Nature of the experiment: pull-down. This is another data set of the same source.

B1: GST-Ela1_(250–379) (domain or fragment, S. cerevisiae, UniProt P53861 250-379, looked up)
chain: VNRQMDNVTAEKKDVTQPITPVKKRRSESPSIFLNRKKPALFRPTPKTNAAGSRPHTTAITNDHRTTSHPYPHKDVVTSISSVTANPVTKGHKKKKSGIFVRNAGSDGDSFPHVTATGPTTRPYIYEPRK
For B1, the binding result in experiment [1] is “binds”.

B2: recombinant Ela1-Elc1 heterodimer (full-length His-Ela1 with Elc1) (complex, S. cerevisiae)
chain 1: MKSLQTLCEISLMRNHSNIQSVSNVPYHLLKRILQKVKIPQLLKLEKSNVLLIFDDDELWLEFLRQDFPTNVHEQFVSKRDIICKYYFDFVKENDIELYHSNQDLLKSCVRQSVVKDIRNNKYRIPYRMLYSKYQQEVEKKQEESAERLRLEMQKLQQEREKKQTIVVDHTVYFKKRNTKKTTRLHNEPHSQLYMKSLKDHESRLKHFKDGGFNIAKRHAQRVAFGGQAGGQSSSPKKGPLSIKPEPVKVNRQMDNVTAEKKDVTQPITPVKKRRSESPSIFLNRKKPALFRPTPKTNAAGSRPHTTAITNDHRTTSHPYPHKDVVTSISSVTANPVTKGHKKKKSGIFVRNAGSDGDSFPHVTATGPTTRPYIYEPRK
chain 2: MSQDFVTLVSKDDKEYEISRSAAMISPTLKAMIEGPFRESKGRIELKQFDSHILEKAVEYLNYNLKYSGVSEDDDEIPEFEIPTEMSLELLLAADYLSI
Consider B2, for which the binding result in experiment [2] is “binds”.
